{"source": "IntAct's records for PubMed 36833176", "biological_target": "csk21_human CSNK2A1 (UniProt P68400)", "sequence (P68400 whole entry, looked up)": "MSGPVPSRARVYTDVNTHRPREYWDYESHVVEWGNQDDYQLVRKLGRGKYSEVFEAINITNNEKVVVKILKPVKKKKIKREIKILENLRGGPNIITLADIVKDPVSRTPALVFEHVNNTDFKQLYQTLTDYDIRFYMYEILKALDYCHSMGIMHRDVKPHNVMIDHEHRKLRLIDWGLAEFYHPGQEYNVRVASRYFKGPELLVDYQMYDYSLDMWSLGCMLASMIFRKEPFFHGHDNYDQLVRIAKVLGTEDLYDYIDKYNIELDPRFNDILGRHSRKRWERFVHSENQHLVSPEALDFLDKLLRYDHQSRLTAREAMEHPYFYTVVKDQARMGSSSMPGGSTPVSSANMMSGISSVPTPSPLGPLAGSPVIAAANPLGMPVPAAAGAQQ", "data": [{"substance": "Casein kinase II subunit beta (Homo sapiens), P67870 L39R", "values": [{"measurement": "effect of a mutation on the interaction", "result": "decreasing interaction strength"}]}]}
